B1: Type II secretion system protein E (Xanthomonas campestris pv. campestris), P31742 (parent)
chain: MEQRSAETRIVEALLERRRLKDTDLVRARQLQAESGMGLLALLGRLGLVSERDHAETCAEVLGLPLVDARQLGDTPPEMLPEVQGLSLRFLKQFHLCPVGERDGRLDLWIADPYDDYAIDAVRLATGLPLLLQVGLRSEIDDLIERWYGQGRSAMGTIVETADGDASSTDDIEALRDLASEAPVIRLVNLVIQHAVELRASDIHIEPFESRLKVRYRVDGVLVEGESPPAKLTAAVISRIKIMAKLNIAERRLPQDGRIMLRVQGKELDLRVSTVPTAHGESVVMRLLDRETVVFDFYKLGFTEDFLPQFRKVLEQPHGIMLVTGPTGSGKTTTLYTALSQLNTSDVKIITVEDPVEYQIEGINQIQAKPQIGLDFANALRSIVRQDPDIIMIGEMRDLETARIAIQSALTGHLVLSTLHTNNAAGGITRLLDMGVEDYLLTSTINGILAQRLVRKLDLANAERYAASPEEIERFDLRRLQPDGEIFLYRPRATAAAPTGYLGRTTIVEFLVMNDELRRAVMRRAGMGEIEQLARKSGMRTMYEDGLSKALRGETTIEEVLRVTEDA
partner: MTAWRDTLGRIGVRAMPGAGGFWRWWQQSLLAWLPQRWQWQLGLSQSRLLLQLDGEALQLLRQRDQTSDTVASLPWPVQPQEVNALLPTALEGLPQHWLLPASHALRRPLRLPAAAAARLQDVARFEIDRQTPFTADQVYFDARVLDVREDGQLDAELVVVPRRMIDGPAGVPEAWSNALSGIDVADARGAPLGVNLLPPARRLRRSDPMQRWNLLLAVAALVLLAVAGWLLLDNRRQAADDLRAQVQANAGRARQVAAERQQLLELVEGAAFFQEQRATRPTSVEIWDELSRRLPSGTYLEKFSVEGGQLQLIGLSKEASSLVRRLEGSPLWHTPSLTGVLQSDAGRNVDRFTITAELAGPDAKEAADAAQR

Variants of: B1
Conditions: with gspl_xancp pefL

| Variant | effect of a mutation on the interaction |
| --- | --- |
| R504A | disrupting interaction |
| K331M | disrupting interaction |

Source: IntAct's records for PubMed 16525507
